Experimental data from PMC8629194 (bioRxiv, 2021).

Target: wt ACE2_(615)-Fc (M27) (human, UniProt Q9BYF1 18-615)
Assay: SPR

Sequence of wt ACE2_(615)-Fc (M27) (Q9BYF1 18-615): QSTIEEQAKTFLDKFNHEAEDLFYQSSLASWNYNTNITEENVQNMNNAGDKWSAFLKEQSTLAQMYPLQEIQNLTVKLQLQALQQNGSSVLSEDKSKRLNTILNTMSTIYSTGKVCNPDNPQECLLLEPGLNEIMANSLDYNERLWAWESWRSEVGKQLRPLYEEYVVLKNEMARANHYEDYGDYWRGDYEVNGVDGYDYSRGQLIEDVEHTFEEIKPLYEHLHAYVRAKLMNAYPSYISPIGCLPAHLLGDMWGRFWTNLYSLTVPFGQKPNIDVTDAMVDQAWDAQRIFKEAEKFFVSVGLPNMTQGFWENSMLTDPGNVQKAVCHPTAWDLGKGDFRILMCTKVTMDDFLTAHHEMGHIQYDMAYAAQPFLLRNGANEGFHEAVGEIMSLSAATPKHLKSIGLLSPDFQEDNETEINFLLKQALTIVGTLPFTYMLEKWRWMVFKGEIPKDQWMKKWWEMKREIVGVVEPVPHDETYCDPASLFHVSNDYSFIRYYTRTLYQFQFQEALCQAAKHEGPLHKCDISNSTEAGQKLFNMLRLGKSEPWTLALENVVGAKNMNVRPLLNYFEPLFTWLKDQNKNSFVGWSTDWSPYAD

B1: SARS-CoV RBD (residue 306–577) (domain or fragment)
chain: not shown
- fold, affinity of RBDwt for M27 over that of SARS-CoV-1 RBD: ~5 fold
